From patent US8889130B2, “Treatment of osteoarthritis and pain” (Abbvie Inc., priority 2011, dated 2014) come the findings set out here.

One experiment has as its system mice (female BALB/c). Briefly: Mouse carrageenan-induced inflammatory pain model, thermal hyperalgesia (paw withdrawal latency). To be noted: Example 8; 48 and 96 hours; single mAb 900 μg; diclofenac 30 mg/kg. In kind it is in vivo. As to the method:
To evaluate whether neutralization of IL-1α and IL-1β produces antinociceptive effects in inflammatory pain conditions, anti-IL-1α and anti-IL-1β mAbs were evaluated for the ability to reverse established pain in the mouse carrageenan paw model of nociceptive pain.
The efficacy of the anti-IL-1α and anti-IL-1β mAbs was evaluated when administered alone or in combination in the mouse carrageenan model (FIG. 15). At 30 hours after intraplantar carrageenan injection: 900 μg of either anti-IL-1α mAb, anti-IL-1β mAb, or their combination were administered in different groups of mice. Thermal hyperalgesia testing was performed 48 and 96 hours after carrageenan. […] The antinociceptive effect in 900 μg combination group was 53±7% at 48 hours, and 82±11% at 96 hours.
Different groups of animals were treated either with vehicle or a combination of anti-IL-1α and anti-IL-1β mAbs (100, 300, or 900 μg/mouse of each mAb) 30 hours after carrageenan injection. […] The antinociceptive effect in 900 μg treatment group was 70±9% at 48 hours, and 62±4% at 96 hours. Diclofenac (30 mg/kg), a non-steroidal, anti-inflammatory analgesic, was included as positive control in the study, and it increased the mean paw withdrawal latency of the injured paw to 7.01±0.58 s at 48 hours and 7.48±0.34 s at 96 hours when administered p.o. 60 minutes before testing (p<0.01 at both time points).

Another experiment deals with Male SV129 mice. Put plainly: Destabilization of medial meniscus (DMM) model of osteoarthritis, cartilage degeneration (Chambers scores). As to conditions: Example 3.3.6 (FIG. 7); 8 weeks; mAbs 6 mg/kg alone or in combination. In kind it is in vivo, mouse.
Text: (§1) Male SV129 mice weighing approximately 30 grams, housed 5/cage, were anesthetized on Day 0 with ketamine/xylazine cocktail, administered intraperitoneally (ip), and then the medial collateral ligament was exposed by blunt dissection, and transected to reflect the meniscus toward the femur. The joint space was closed with 8-0 vicryl suture. The skin was closed with wound glue. For sham surgeries, a vertical skin incision was made over the medial aspect of the knee and the joint capsule was opened. The capsule was closed with 8-0 vicryl suture and the skin was closed with wound glue. Groups of animals were then treated with intraperitoneal (ip) injections of antibody or vehicle according to the study design table below. Two sex-matched, age-matched, and strain-matched naïve mice were also included in the study. Animals were euthanized after 8 weeks of treatment, and knee joints were harvested in 10% neutral buffered formalin.
Formalin-fixed samples were decalcified, and specimens were sectioned in the frontal plane into 15 step sections each. Each section was approximately 6 μm thick, and step sections were separated by 70 μm. All slides were stained with toluidine blue (T. Blue). Slides were assessed according to the Chambers method (Chambers et al. (2001) Arthritis Rheum 44:1455-65) for cartilage degeneration (see below) by a board-certified veterinary pathologist. Each of the four cartilage surfaces, the medial femoral condyle (MFC), the medial tibial plateau (MTP), the lateral femoral condyle (LFC), and the lateral tibial plateau (LTP), was scored from 0-6 according to the scale in the table below.
as §1, with “8-0 vicryl suture, and the” for “8-0 vicryl suture and the”, “injections of anti-mIL-1α monoclonal antibody, anti-mIL-1β (alone or in combination), mIL-1α/βDVD-Ig binding protein, or vehicle” for “injections of antibody or vehicle”, “design table below (Table 24). Animals were” for “design table below. Two sex-matched, age-matched, and strain-matched naïve mice were also included in the study. Animals were”, “weeks of treatment and knee” for “weeks of treatment, and knee”
Male SV129 mice weighing approximately 30 grams had the medial collateral ligament exposed by blunt dissection, and transected to reflect the meniscus toward the femur. The joint space was closed with 8-0 vicryl suture. The skin was closed with wound glue. For sham surgeries, a vertical skin incision was made over the medial aspect of the knee and the joint capsule was opened. The capsule was closed with 8-0 vicryl suture, and the skin was closed with wound glue. Groups of animals were then treated per os (po) or via intraperitoneal (ip) injections of vehicle or treatments according to the study design table below. Three sex-matched, age-matched, and strain-matched naïve mice were also included in the study. Animals were euthanized after 4 weeks of treatment, and knee joints were harvested in 10% neutral buffered formalin.

B1: 10G11: mouse anti-mouse IL-1β monoclonal antibody (clone 10G11) from IL-1α/β double KO mice (antibody, V domains shown)
VH: EVQLQQSGPELVKPGTSVKMSCKTSGYTFTSYVMHWVKQKPGQGLEWIGYIIPYNDNTKYNEKFKGKATLTSDKSSSTAYMELSSLTSEDSAVYYCARRNEYYGSSFFDYWGQGTTLTVSS
VL: DIQMTQSPASLSASVGETVTITCRGSGILHNYLVWYQQKQGKSPQLLVYSAKILADGVPSRFSGSGSGTQYSLKINSLQPEDFGSYYCQHFWSTPFTFGSGTKLEIKR
modifications: heavy chain variable domain of 10G11; light chain variable domain of 10G11
notes: mouse anti-mouse IL-1β monoclonal antibody (clone 10G11) from IL-1α/β double KO mice
Regarding B1, the “thermal hyperalgesia / antinociceptive effect” value with mice (female BALB/c) is recorded as “no significant antinociceptive effect”. In the experiment on Male SV129 mice, the “mean sum Chambers scores and mean maximum Chambers scores (cartilage degeneration)” value was “not statistically significant”.
